In patent US20260226173A1 (Memorial Sloan Kettering, published 2026):

Experiments:
[1] = biological target: T1, TSTP1-10-mer (…)/HLA-A2 complex on T2 cells (human); experiment: flow cytometry, T2 cells alone or pulsed with peptide, stained with BiTE at 1 µg/ml, MFI
T1 construct: Potential off-target peptide pulsed onto T2 cells; also called Tyrosyl protein sulfotransferase 1 peptide

[2] = biological target: T2, biotinylated WT1 RMF pMHC complex (human); experiment: SPR (Biacore), biotinylated pMHC on CAP chip, BiTE as analyte 150 to 4.6875 nM, 1:1 binding model; clone #34 BiTE
T2 construct: Soluble biotinylated complex loaded on the Biacore CAP chip; also called HLA-A2-WT1 RMF complex

[3] = biological target: T3, WT1 RMF (…)/HLA-A2 complex on cells (human); experiment: flow cytometry, phage clones on RMF-pulsed T2 cells
T3 construct: On T2 cells pulsed with the peptide, on cells expressing the RMF minigene, or naturally presented on WT1+/HLA-A2+ tumour cells; also called RMF/HLA-A2; WT1 RMF/A2 complex

[4] = biological target: T4, HLA-A2 on T2 cells alone (not pulsed with peptide) (human); experiment: flow cytometry, phage clones on T2 cells
T4 construct: TAP-deficient HLA-A2+ T2 cells with no peptide added; Also used as the HLA-A2 that pulsed peptides stabilise; also called T2 alone; T2 cells left unpulsed

[5] = biological target: T2, biotinylated WT1 RMF pMHC complex; experiment: SPR (Biacore), biotinylated pMHC on CAP chip, BiTE as analyte 150 to 4.6875 nM, 1:1 binding model; clone #18 BiTE

Binder | binding result [1] | Kd [2] | binding result [3] | binding result [4] | Kd [5]
ESK2 clone #34 BiTE (bispecific antibody, V domains shown, made in CHO cells; also called ESK2-#34 BiTE) VH: QVQLVQSGTEVRKPGASLKVSCTTSGYIFTGYYIHWVRQVPGQGLEWMGWINPNSGVTEFAQGFQGRITMTRDTSTSTVYMELSRLTSDDTAVYYCAREGVWGYYDSWGQGTLVTVSS VL: SSELTQDPAVSVALGQTVRITCQGDSLRSYYASWYQQKPGQAPVLVIYDKNNRPSGIPDRFSGSSSGNTASLTITGAQAEDEADYYCNSRDSSGNHHVVFGGGTKLTVLG | no binding (tested: 1 µg/ml) | 1.5 nM | – | – | –
ESK2 clone 1 (Clone 1 anti-WTMC antibody moiety), phage clone (scFv, V domains shown, Human scFv on phage (E-ALPHA library); also called ESK2-1) VH: EVQLVQSGAEVKKPGASVKVSCKASGYNFTSYGISWVRQAPGQGLEWMGWISAYNGNTNYAQKLQGRVTMTTDTSTSTAYMELRSLRSDDTAVYYCARDWDYDFLTGWDGMDVWGQGTTVTVSS VL: QSVVTQPPSVSAAPGQKVTISCSGSSSNIGNNYVSWYQQLPGTAPKLLIYYNNKRPSGIPDRFSGSKSGTSATLGITGLQTGDEADYYCGTWDSSLSAGQVFGGGTKLTVLG | – | – | binds | no binding | –
ESK2 clone 26 (Clone 26 anti-WTMC antibody moiety), phage clone (scFv, V domains shown, Human scFv on phage (E-ALPHA library); also called ESK2-26) VH: QVQLVQSGGGLVQPGRSLRLSCAASGFTFDDYAMHWVRQAPGKGLEWVSGISWNSGSIGYADSVKGRFTISRDNAKNSLYLQMNSLRPEDTAVYYCARGYMGHNWYDWGQGTLVTVSS VL: LPVLTQPPSVSVAPGKTARITCGGNDIGSKAVHWYQQKPGQAPVLVIYYNRDRPSGIPERFSGSNSGNTATLTISRVEAGDEADYYCQVWDSFSDHYVFGTGTKVTVLG | – | – | binds | no binding | –
ESK2 clone 30 (Clone 30 anti-WTMC antibody moiety), phage clone (scFv, V domains shown, Human scFv on phage (E-ALPHA library); also called ESK2-30) VH: QVQLQESGGGLVQPGGSLRLSCAASGFTFSSYWMHWVRQAPGKGLVWVSRINSDGSSTSYADSVKGRFTISRDNAKNTLYLQMNSLRAEDTAVYYCARSGYYMSDIWGQGTLVTVSS VL: NFMLTQPPSLSVAPGKTATITCGGNNIGSKSVHWYQQKPGQAPVLVISYDSDRPSGIPERFSGSKSGNTATLTISRVEAGDEADYYCQVWDSSSDQYVFGSGTKVTVLG | – | – | binds | no binding | –
ESK2 clone 32 (Clone 32 anti-WTMC antibody moiety), phage clone (scFv, V domains shown, Human scFv on phage (E-ALPHA library); also called ESK2-32) VH: QVQLVQSGAEVKKPGSSVKVSCKASGDTFSSYAVSWVRQAPGQGLEWMGAINLIFGTVKYAQKFQGRITITADESTSTAYMELSSLRSEDTAVYYCARGHWSQVWWTSHSYDLWGQGTLVTVSS VL: QAVLTQPPSVSVAPGKTARITCGGNNIGSKSVHWYQQKPGQAPVLVVYDDSDRPSGIPERFSGSNSGNTATLTISRVEAGDEADYYCQVWDSSSDHYVFGTGTKVTVLG | – | – | binds | no binding | –
ESK2 clone 36 (Clone 36 anti-WTMC antibody moiety), phage clone (scFv, V domains shown, Human scFv on phage (E-ALPHA library); also called ESK2-36) VH: EVQLVQSGAEVKKPGESLRISCKDSGYSFTSYWISWVRQMPGKGLEWMGRIDPSDSYTNYSPSFQGHVTISADKSISTAYLQWSSLKASDTAMYYCARMEIYSPDYWGQGTLVTVSS VL: DIQLTQSPSSLSASVGDRVTISCRASQSINKYLNWYQQKPGEAPKLLIYGALRLQSGVPSRFSGSGSGTDYALTITSLQPEDFATYYCQQSYSTPLTFGGGTKVDIKR | – | – | binds | no binding | –
ESK2 clone #18 BiTE (bispecific antibody, V domains shown, made in CHO cells; also called ESK2-#18 BiTE; ESK2-BiTE clone #18) VH: not shown VL: QSVLTQPPSVSGAPGQRVSISCTGSSSNIGAGYVVHWYQHLPGTVPKLLIYDNSNRPSGVPDRFSGSNSGSSASLAVTGLQAEDEADYYCQSYDSSLSGWVFGGGTKLTVLG | – | – | – | – | 3 nM
ESK2 clone 10 (Clone 10 anti-WTMC antibody moiety), phage clone (scFv, V domains shown, Human scFv on phage (E-ALPHA library); also called ESK2-10) VH: EVQLVESGGGVVQPGGSLRLSCAASGFTFDDYAMHWVRQAPGKGLEWVSLISGDGGSTYYADSVKGRFTISRDNSKNSLYLQMNSLRTEDTALYYCAKDMVAAAGWNPYYYYYGMDVWGQGTTVTVSS VL: NFMLTQPHSVSESPGKTVTISCTRSSGGIATNYVQWYQQRPGNAPTAVIYVDNERPSGVPERFSGSIDTSSNSASLTISGLETEDEADYYCQSYDSNNHVVFGGGTKVTVLG | – | – | binds | no binding | –
ESK2 clone 12 (Clone 12 anti-WTMC antibody moiety), phage clone (scFv, V domains shown, Human scFv on phage (E-ALPHA library); also called ESK2-12) VH: EVQLVESGGGLVQPGGSLRLSCVVSGITVSNNYMTWVRQAPGKGLEWVSVIYSDGSTYYADSVRGRFTISRDISKNTVFLQMNSLRAEDTAMYYCASDKVAVAWTDGLDSWGQGTMVTVSS VL: SSELTQDPTVSVALGQTVRITCQGDSLRSYYGGWYQQKPGQAPILVFHGQTNRPSGIPDRFSGSSSGNTVSLTITGAQAEDEADYYCSSRDSSGNHWVFGGGTKLTVLG | – | – | binds | no binding | –
ESK2 clone 15 (Clone 15 anti-WTMC antibody moiety), phage clone (scFv, V domains shown, Human scFv on phage (E-ALPHA library); also called ESK2-15) VH: QVQLVQSGAEVKKPGASVKVSCKASGYTFTDFYIHWVRQAPGQGPEWMGWVNPKSGGTNYAQKFQGRVTMTRDTSISTAYMALSRLRSDDTAVYYCARSWQGMSWESVEDVWGQGTLVTVSS VL: QSVLTQPPSVSGAPGQRVTISCTGSSSNIGAGYDVHWYQQLPGTAPKLLIYGNSNRPSGVPDRFSGSKSGTSASLAITGLQAEDEADYYCQSYDSSLSGAVFGTGTKVTVLG | – | – | binds | no binding | –
ESK2 clone 17 (Clone 17 anti-WTMC antibody moiety), phage clone (scFv, V domains shown, Human scFv on phage (E-ALPHA library); also called ESK2-17) VH: EVQLVQSGAEVKKPGESLKISCKGSGYSFTSYWIGWVRQMPGKGLEWMGIIYPGDSDTRYSPSFQGQVTISADKSISTAYLQWSSLKASDTAVYYCARGGYIYYDAWGQGTLVTVSS VL: SYVLTQPPSVSEAPRQRVTISCSGSRSNVGNNAVSWYQHLPGKAPKLLIYYDDLMPSGVSDRFSGSKSGTSASLAISGLQSEDEADYYCAAWDDSLNGLVFGGGTKLTVLG | – | – | binds | no binding | –
ESK2 clone 11 (Clone 11 anti-WTMC antibody moiety), phage clone (scFv, V domains shown, Human scFv on phage (E-ALPHA library); also called ESK2-11) VH: not shown VL: QSVVTQPPSVSAAPGQRVTISCSGGSSNIGNNYVSWYQHLPGTAPKLLIYENNLKRPSGIPDRFSGSKSGTSATLGITGLQTGDEADYYCGTWDSSLNAGVFGGGTKLTVLG | – | – | – | no binding | –
ESK2 clone 14 (Clone 14 anti-WTMC antibody moiety), phage clone (scFv, V domains shown, Human scFv on phage (E-ALPHA library); also called ESK2-14) VH: EVQLVQSGAEVKKPGASVKISCKTSGYTFTDYYLHWVRQAPVQGLEWMGYVDPYDGYTHYAQNFQGRVTMTTDTSTSTAYMELSSLRSEDTAVYYCARFSGTRQDSHWGQGTLVTVSS VL: QSALTQPPSASGSPGQSVTISCTGTSSDVGGYNYVSWYQQHPGKAPKLMIYEVSKRPSGVPDRFSGSKSGNTASLTVSGLQAEDEADYYCSSYAGSNNLAVVFGGGTKLTVLG | – | – | – | no binding | –
